In article PMC9376089, “Reformation of the chondroitin sulfate glycocalyx enables progression of AR-independent prostate cancer”:

Legend:
AR-DBD (EMSA) [1] = molecular target: T1, AR-DBD (EMSA) (UniProt P10275 556-629); test: EMSA; 100 fmol probe, AR-DBD titration, poly(dI-dC); BLI: 20 mM Tris pH 8, 150 mM NaCl, 5% glycerol, 2 mM DTT, 0.1 mM PMSF, temperature not stated; EMSA: 10 mM Tris pH 7.5, 50 mM KCl, DTT (1 mM); 2.5 mM with 0.25%; settings: protein: recombinant, chain copies: 2, blunt
AR-DBD (EMSA) [2] = molecular target: T1, AR-DBD (EMSA); test: competition; 20 nmol unlabeled competitor (so in the source) vs labeled TMPRSS2-ARE; BLI: 20 mM Tris pH 8, 150 mM NaCl, 5% glycerol, 2 mM DTT, 0.1 mM PMSF, temperature not stated; EMSA: 10 mM Tris pH 7.5, 50 mM KCl, DTT (1 mM); 2.5 mM with 0.25%; settings: protein: recombinant; chain copies: 2; blunt

T1 sequence (P10275 556-629): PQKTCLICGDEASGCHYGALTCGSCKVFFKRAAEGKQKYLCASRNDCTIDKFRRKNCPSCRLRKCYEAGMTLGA

B1: PSA-ARE (EMSA probe) (dsDNA)
DNA 1: TACAAATAGGTTCTTGGAGTACTTTACTAGGCATGGACAATG
DNA 2: CATTGTCCATGCCTAGTAAAGTACTCCAAGAACCTATTTGTA
- binding result (AR-DBD (EMSA) [1]; label: 5' IRD700 on strand 1): binds

B2: CHST11-ARE (EMSA probe) (dsDNA)
DNA 1: AGATGCCCCAGTGTTCTAG
DNA 2: CTAGAACACTGGGGCATCT
- binding result (AR-DBD (EMSA) [1]): binds

B3: CHST11-ARE (unlabeled competitor) (dsDNA)
DNA 1: AGATGCCCCAGTGTTCTAG
DNA 2: CTAGAACACTGGGGCATCT
- binding result (AR-DBD (EMSA) [2]): binds
